These are literature values, as cited in patent US20200069786A1, “COMPOSITION AND PROCESS FOR PREPARING VACCINE” (TREOS BIO ZRT., priority 2018, published 2020).

Where two headings read alike, the source gives them in different places.

In this series the test system is TSA.
[1] abbreviates: TSA expression rate in MELANOMA

B1: CEA (protein, UniProt P06731 35-685, looked up)
Cell adhesion molecule CEACAM5: KLTIESTPFNVAEGKEVLLLVHNLPQHLFGYSWYKGERVDGNRQIIGYVIGTQQATPGPAYSGREIIYPNASLLIQNIIQNDTGFYTLHVIKSDLVNEEATGQFRVYPELPKPSISSNNSKPVEDKDAVAFTCEPETQDATYLWWVNNQSLPVSPRLQLSNGNRTLTLFNVTRNDTASYKCETQNPVSARRSDSVILNVLYGPDAPTISPLNTSYRSGENLNLSCHAASNPPAQYSWFVNGTFQQSTQELFIPNITVNNSGSYTCQAHNSDTGLNRTTVTTITVYAEPPKPFITSNNSNPVEDEDAVALTCEPEIQNTTYLWWVNNQSLPVSPRLQLSNDNRTLTLLSVTRNDVGPYECGIQNELSVDHSDPVILNVLYGPDDPTISPSYTYYRPGVNLSLSCHAASNPPAQYSWLIDGNIQQHTQELFISNITEKNSGLYTCQANNSASGHSRTTVKTITVSAELPKPSISSNNSKPVEDKDAVAFTCEPEAQNTTYLWWVNGQSLPVSPRLQLSNGNRTLTLFNVTRNDARAYVCGIQNSVSANRSDPVTLDVLYGPDTPIISPPDSSYLSGANLNLSCHSASNPSPQYSWRINGIPQQHTQVLFIAKITPNNNGTYACFVSNLATGRNNSIVKSITVSASGTSPGLSA
Turning to B1, the “TSA Expression Rate (ER)” value (PANCREATIC) was 60%.

B2: gp100 (protein, UniProt P40967 25-661, looked up)
Melanocyte protein PMEL: KVPRNQDWLGVSRQLRTKAWNRQLYPEWTEAQRLDCWRGGQVSLKVSNDGPTLIGANASFSIALNFPGSQKVLPDGQVIWVNNTIINGSQVWGGQPVYPQETDDACIFPDGGPCPSGSWSQKRSFVYVWKTWGQYWQVLGGPVSGLSIGTGRAMLGTHTMEVTVYHRRGSRSYVPLAHSSSAFTITDQVPFSVSVSQLRALDGGNKHFLRNQPLTFALQLHDPSGYLAEADLSYTWDFGDSSGTLISRALVVTHTYLEPGPVTAQVVLQAAIPLTSCGSSPVPGTTDGHRPTAEAPNTTAGQVPTTEVVGTTPGQAPTAEPSGTTSVQVPTTEVISTAPVQMPTAESTGMTPEKVPVSEVMGTTLAEMSTPEATGMTPAEVSIVVLSGTTAAQVTTTEWVETTARELPIPEPEGPDASSIMSTESITGSLGPLLDGTATLRLVKRQVPLDCVLYRYGSFSVTLDIVQGIESAEILQAVPSGEGDAFELTVSCQGGLPKEACMEISSPGCQPPAQRLCQPVLPSPACQLVLHQILKGGSGTYCLNVSLADTNSLAVVSTQLIMPGQEAGLGQVPLIVGILLVLMAVVLASLIYRRRLMKQDFSVPQLPHSSSHWLRLPRIFCSCPIGENSPLLSGQQV
B2: where the note is “BRAIN”, the “TSA Expression Rate (ER)” value was 85%. Moreover, under setting [1], the “Expression Rate (ER) %” value is listed as 82%.

B3: TYR (protein, UniProt P14679 19-529, looked up)
Tyrosinase: HFPRACVSSKNLMEKECCPPWSGDRSPCGQLSGRGSCQNILLSNAPLGPQFPFTGVDDRESWPSVFYNRTCQCSGNFMGFNCGNCKFGFWGPNCTERRLLVRRNIFDLSAPEKDKFFAYLTLAKHTISSDYVIPIGTYGQMKNGSTPMFNDINIYDLFVWMHYYVSMDALLGGSEIWRDIDFAHEAPAFLPWHRLFLLRWEQEIQKLTGDENFTIPYWDWRDAEKCDICTDEYMGGQHPTNPNLLSPASFFSSWQIVCSRLEEYNSHQSLCNGTPEGPLRRNPGNHDKSRTPRLPSSADVEFCLSLTQYESGSMDKAANFSFRNTLEGFASPLTGIADASQSSMHNALHIYMNGTMSQVQGSANDPIFLLHHAFVDSIFEQWLRRHRPLQEVYPEANAPIGHNRESYMVPFIPLYRNGDFFISSKDLGYDYSYLQDSDPDSFQDYIKSYLEQASRIWSWLLGAAMVGAVLTALLAGLVSLLCRHKRKQLPEEKQPLLMEKEDYHSLYQSHL
Turning to B3, the “TSA Expression Rate (ER)” value by setting is: (BRAIN) 91%; (THYROID) 0%. Besides, under setting [1], the “Expression Rate (ER) %” value was 87%.

B4: IL13RA2 (protein, UniProt Q14627 27-380, looked up)
Interleukin-13 receptor …: DTEIKVNPPQDFEIVDPGYLGYLYLQWQPPLSLDHFKECTVEYELKYRNIGSETWKTIITKNLHYKDGFDLNKGIEAKIHTLLPWQCTNGSEVQSSWAETTYWISPQGIPETKVQDMDCVYYNWQYLLCSWKPGIGVLLDTNYNLFYWYEGLDHALQCVDYIKADGQNIGCRFPYLEASDYKDFYICVNGSSENKPIRSSYFTFQLQNIVKPLPPVYLTFTRESSCEIKLKWSIPLGPIPARCFDYEIEIREDDTTLVTATVENETYTLKTTNETRQLCFVVRSKVNIYCSDDGIWSEWSDKQCWEGEDLSKKTLLRFWLPFGFILILVIFVTGLLLRKPNTYPKMIPEFFCDT
For B4, the “TSA Expression Rate (ER)” value (BRAIN) was 95%. The “Expression Rate (ER) %” value is given as 12% (TSA expression rate in LUNG cancer) and 58% (TSA expression rate in PEDIATRIC).

B5: ZNF165 (protein, UniProt P49910 1-485, looked up)
Zinc finger protein 165: MATEPKKAAAQNSPEDEGLLIVKIEEEEFIHGQDTCLQRSELLKQELCRQLFRQFCYQDSPGPREALSRLRELCCQWLKPEIHTKEQILELLVLEQFLTILPGDLQAWVHEHYPESGEEAVTILEDLERGTDEAVLQVQAHEHGQEIFQKKVSPPGPALNVKLQPVETKAHFDSSEPQLLWDCDNESENSRSMPKLEIFEKIESQRIISGRISGYISEASGESQDICKSAGRVKRQWEKESGESQRLSSAQDEGFGKILTHKNTVRGEIISHDGCERRLNLNSNEFTHQKSCKHGTCDQSFKWNSDFINHQIIYAGEKNHQYGKSFKSPKLAKHAAVFSGDKTHQCNECGKAFRHSSKLARHQRIHTGERCYECNECGKSFAESSDLTRHRRIHTGERPFGCKECGRAFNLNSHLIRHQRIHTREKPYECSECGKTFRVSSHLIRHFRIHTGEKPYECSECGRAFSQSSNLSQHQRIHMRENLLM
Consider B5, for which the “TSA Expression Rate (ER)” value reads like this: (BRAIN) 100%; (HCC) 52%; (LUNG) 21%. The “Expression Rate (ER) %” value is, setting by setting: (TSA expression rate in CRC) 43%; (TSA expression rate in GASTRIC cancer) 9%; (TSA expression rate in LEUKEMIAS) 52%.

B6: PBK (protein, UniProt Q96KB5 1-322, looked up)
Lymphokine-activated killer …: MEGISNFKTPSKLSEKKKSVLCSTPTINIPASPFMQKLGFGTGVNVYLMKRSPRGLSHSPWAVKKINPICNDHYRSVYQKRLMDEAKILKSLHHPNIVGYRAFTEANDGSLCLAMEYGGEKSLNDLIEERYKASQDPFPAAIILKVALNMARGLKYLHQEKKLLHGDIKSSNVVIKGDFETIKICDVGVSLPLDENMTVTDPEACYIGTEPWKPKEAVEENGVITDKADIFAFGLTLWEMMTLSIPHINLSNDDDDEDKTFDESDFDDEAYYAALGTRPPINMEELDESYQKVIELFSVCTNEDPKDRPSAAHIVEALETDV
For B6, the “TSA Expression Rate (ER)” value runs as follows: (BRAIN) 100%; (HCC) 64%. The “Expression Rate (ER) %” value (TSA expression rate in BLADDER cancer) is on record as 43%.

B7: ODF4 (protein, UniProt Q2M2E3 1-257, looked up)
Outer dense fiber protein 4: MDAEYSGNEFPRSEGERDQHQRPGKERKSGEAGWGTGELGQDGRLLSSTLSLSSNRSLGQRQNSPLPFQWRITHSFRWMAQVLASELSLVAFILLLVVAFSKKWLDLSRSLFYQRWPVDVSNRIHTSAHVMSMGLLHFYKSRSCSDLENGKVTFIFSTLMLFPINIWIFELERNVSIPIGWSYFIGWLVLILYFTCAILCYFNHKSFWSLILSHPSGAVSCSSSFGSVEESPRAQTITDTPITQEGVLDPEQKDTHV
For B7, where the note is “BREAST”, the “TSA Expression Rate (ER)” value was 63%. Also, the “Expression Rate (ER) %” value (TSA expression rate in PROSTATE cancer) is 0%.

B8: GAGE-2 (protein, UniProt Q6NT46 1-116, looked up)
G antigen 2A: MSWRGRSTYRPRPRRYVEPPEMIGPMRPEQFSDEVEPATPEEGEPATQRQDPAAAQEGQDEGASAGQGPKPEAHSQEQGHPQTGCECEDGPDGQEMDPPNPEEVKTPEEGEKQSQC
B8: under “PANCREATIC”, the “TSA Expression Rate (ER)” value is 17%.
